{"source": "paper PMC6009930", "about": "“Allosteric inhibition of carnosinase (CN1) by inducing a conformational shift” (Journal of Enzyme Inhibition and Medicinal Chemistry, 2017)", "proteins": {"B1": {"name": "recombinant CN1 (rCN1) (Homo sapiens) (protein)", "chain": "SSPSPPPALLEKVFQYIDLHQDEFVQTLKEWVAIESDSVQPVPRFRQELFRMMAVAADTLQRLGARVASVDMGPQQLPDGQSLPIPPVILAELGSDPTKGTVCFYGHLDVQPADRGDGWLTDPYVLTEVDGKLYGRGATDNKGPVLAWINAVSAFRALEQDLPVNIKFIIEGMEEAGSVALEELVEKEKDRFFSGVDYIVISDNLWISQRKPAITYGTRGNSYFMVEVKCRDQDFHSGTFGGILHEPMADLVALLGSLVDSSGHILVPGIYDEVVPLTEEEINTYKAIHLDLEEYRNSSRVEKFLFDTKEEILMHLWRYPSLSIHGIEGAFDEPGTKTVIPGRVIGKFSIRLVPHMNVSAVEKQVTRHLEDVFSKRNSSNKMVVSMTLGLHPWIANIDDTQYLAAKRAIRTVFGTEPDMIRDGSTIPIAKMFQEIVHKSVVLIPLGAVDDGEHSQNEKINRWNYIEGTKLFAAFFLEMAQLH", "notes": "FLAG-tagged, secreted by transfected CHO cells, purified from supernatant; homodimer in vitro; dinuclear Zn site"}}, "substrate": "NCCC(=O)N[C@@H](Cc1cnc[nH]1)C(=O)O", "experiment": "OPA fluorescence assay of liberated histidine, Michaelis-Menten fit", "type": "biochemical, Homo sapiens", "conditions": "pH 7, control without thiol", "text": "OPA fluorescence assay of liberated histidine, Michaelis-Menten fit on recombinant CN1 (rCN1)"}
{"protein": "B1", "values": [{"measurement": "Km", "result": "800 ± 100", "unit": "µM"}, {"measurement": "Vmax", "result": 0.07, "unit": "µmol/min/mg"}]}
